This is an account of results in patent publication US10487121B2, “D-peptide inhibitors of HIV entry and methods of use” (priority 2016, dated 2019).

In brackets after ≈: the same amount, converted by molar mass. Numbered stars: 1 amine (or outer) side, 2 acyl side, 3 side chain; on linkers, the order of the positions; unused ones are H or OH. Bridge positions count the residues as written; N and C are the ends. Square brackets hold non-standard residues; d marks the D form. I, II: the chains in the order shown. X1 = CC(C)CCC[C@@H](C)[C@H]1CC[C@H]2[C@@H]3CC=C4C[C@@H](OC(=O)NCCOCCOCCOCCOCCC(=O)NCCOCCOCCOCCOCCOCCOCCOCCOCCOCCOCCOCCOCCOCCOCCOCCOCCOCCOCCOCCOCCOCCOCCOCCOCCOCCOCCOCCOCCC(=O)NC(CCC(=O)[*:1])(CCC(=O)[*:2])CCC(=O)[*:3])CC[C@]4(C)[C@H]3CC[C@]12C; PEG4 = NCCOCCOCCOCCOCCC(=O)O

Data set [1] has as its target HSA (Homo sapiens, UniProt P02768). As to conditions: cited from earlier work.
For data set [2] the following is noted: humans; cited from earlier work.
Data set [3] can be described thus: Solubility in standard aqueous buffers.
Data set [4] in a line: Rat pharmacokinetics of cholesterol conjugates, Calvert study (Table 4 protocol). As to conditions: for bioavailability: male. The protocol:
For PIE12 monomer conjugates, in-life studies were performed by Invitek (Hayward, Calif.). Trimeric conjugate in-life studies were performed at Navigen (Salt Lake City, Utah). […] At each timepoint, plasma was obtained using lithium heparin. […] Plasma samples were stored at −80° C. and shipped prior to bioanalysis.
The column temperature was maintained at 70° C.
Fifty microliter aliquots of plasma for each time point was precipitated with 2.5 volumes of ice-cold acetonitrile containing 2% trifluoroacetic acid (v/v) and 370 nM CPT12 as internal standard. […] The column temperature was maintained at 70° C.
CPT31 in Rat Plasma-Calvert Study
Fifty microliter aliquots of plasma for each time point was precipitated with 5 volumes of ice-cold acetonitrile containing 1% formic acid (v/v). No internal standard was used. […] The column temperature was maintained at 40° C.
All of the PK data presented in Table 3 was generated using the same animal protocols and similar bioanalytical methods. Different animal protocols and improved bioanalytical methods were used to generate the data in Table 4 (all PK fitiing was performed using WinNonlin software).

Data set [5] can be described thus: Non-human primate pharmacokinetics. Format: in vivo, cynomolgus monkeys. The protocol:
Non-Human Primate Pharmacokinetics
In-life was performed by Calvert Laboratories (Scott Township, Pa.). […] Upon IV dosing, 1 ml blood samples were collected at 0.083, 0.167, 0.25, 0.5, 1, 2, 4, 8, 16 and 24 h post-dose into chilled tubes containing K2EDTA, mixed by inversion, and centrifuged (3000 rpm, 4° C., 15 min) to isolate plasma. Plasma was stored at −80° C. until bioanalysis.
Following a 13-day washout period, study animals were administered a single subcutaneous dose of CPT31 (10 mg/ml in 50 mM HEPES, pH 7.4) into the loose skin of the back between the shoulder blades at a dose of 3 mg/kg. Plasma samples were collected at pre-dose, 0.25, 0.5, 1, 2, 4, 8, 16, 24 and 48 hours post-dose. Collected blood samples were treated as described above. The pre-dose sample confirmed drug levels were below the lower limit of quantification (5.00 nM).
CPT31 in Monkey Plasma-Calvert Study
The internal standard, CPT31-IS was synthesized with an additional glycine on each PIE12-2 monomer (three in total), increasing the molecular mass by 171.1 Da. Plasma samples (200 μl) were spiked with CPT31-IS to a concentration of either 60 or 150 nM, then precipitated in 2% NH4OH in acetonitrile (500 μl). Following centrifugation, the supernatant was applied to a strong anion exchange solid-phase extraction 96-well plate (SOLAμ SAX, 2 mg/ml 96-well plate). The anion exchange plate was first conditioned with 400 μl of 2% NH4OH in methanol, followed by 400 μl of 2% NH4OH in water. The precipitated supernatant (500 μl) was then loaded into each well, followed by washing with 500 μl of 2% NH4OH in water, then 500 μl of methanol. Sample was eluted using two 50 μl aliquots of 2% formic acid in methanol.
LC-MS analysis was conducted using an Agilent Infinity 1290 HPLC system paired to an Agilent 6450A Q-TOF mass spectrometer equipped with a Dual Jet Spray ESI source. […] Samples were analyzed against a standard curve of CPT31 from 5.00-2,000 nM.

For data set [6], the system named is JRFL (R5) luciferase reporter pseudovirions on HOS-CD4-CCR5. Nature of the data set: Pseudovirion entry assay, JRFL. Format: cell-based, HIV-1. The protocol: Pseudovirion assays were performed as previously described (Welch et al., 2010, J. Virol. 84:11235-44; Welch et al., 2007, Proc. Natl. Acad. Sci. 104:16827-16833, each of which is incorporated herein by reference in its entirety). Briefly, a six-point dilution series of each inhibitor was generated in quadruplicate on HOS-CD4-CXCR4 (for HXB2) or HOS-CD4-CCR5 (for JRFL) monolayers in 96 well plates, after which HXB2 (X4) or JRFL (R5) luciferase reporter pseudovirions were added. After 2 days, cells were lysed using GloLysis buffer (Promega) and BrightGlo luciferase substrate (Promega) was added. Luminescence was read on a PolarStar Optima (BMG) plate reader and normalized to uninhibited controls. Inhibition curves were plotted and fit to a standard IC50 equation for normalized data [(1−c/(IC50+c)], weighting each point by its standard error using KaleidaGraph (Synergy Software). Reported IC50 values are the average of at least two independent quadruplicate assays.

Data set [7] can be described thus: Rodent pharmacokinetics of PIE12-trimer and conjugates (Table 3 protocol). Format: in vivo, Sprague Dawley rats. As to conditions: rats. The protocol:
At each timepoint, plasma was obtained using lithium heparin.
Samples were spiked with an internal standard then precipitated with two volumes of 98% acetonitrile/2% Formic acid. Supernatants were analyzed by LC/MS/MS using an Agilent HPLC system (Waters X-Bridge BEH C18 column) paired to an AB Sciex API 3000 triple-quad mass spectrometer using MRM methods. Lipid conjugates required lower source temperatures (300° C. vs 500° C.) for improved reproducibility.

[8] abbreviates: rats, IV, 1.0 mg/kg, plasma, median, updated protocols.
Setting [9] is: rats, SC, 1.0 mg/kg, plasma, median, updated protocols.
Setting [10] is: rat, in vivo, IV, 1.0 mg/kg, plasma, median.
The mark [11] stands for this setting: rat, in vivo, SC, 1.0 mg/kg, plasma, median.

Chain of HSA (P02768 25-609): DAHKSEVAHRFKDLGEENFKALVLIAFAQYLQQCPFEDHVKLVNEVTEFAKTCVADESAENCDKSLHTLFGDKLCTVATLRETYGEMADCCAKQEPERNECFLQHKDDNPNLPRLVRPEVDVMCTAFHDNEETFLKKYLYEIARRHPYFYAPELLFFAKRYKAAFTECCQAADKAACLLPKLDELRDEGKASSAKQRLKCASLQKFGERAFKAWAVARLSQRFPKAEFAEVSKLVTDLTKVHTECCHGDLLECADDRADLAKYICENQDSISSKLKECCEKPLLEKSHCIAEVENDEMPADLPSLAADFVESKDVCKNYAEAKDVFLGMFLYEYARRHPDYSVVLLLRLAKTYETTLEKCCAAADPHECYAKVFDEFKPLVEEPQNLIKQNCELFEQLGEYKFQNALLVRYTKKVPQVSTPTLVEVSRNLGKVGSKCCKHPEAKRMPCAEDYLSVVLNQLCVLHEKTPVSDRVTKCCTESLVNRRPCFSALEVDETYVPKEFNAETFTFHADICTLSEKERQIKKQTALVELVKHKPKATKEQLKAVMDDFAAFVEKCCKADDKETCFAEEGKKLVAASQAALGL

enfuvirtide: in data set [1], the “HSA binding, in words” value is reported as “highly HSA bound”. In data set [2], the “volume of distribution, in words” value is reported as “reduced volume of distribution”.
In data set [3], “I: Ac-[dH][dP][dC][dD][dY][dP][dE][dW][dQ][dW][dL][dC][dE][dL]G[PEG4][dK]-NH2 / II: Ac-[dH][dP][dC][dD][dY][dP][dE][dW][dQ][dW][dL][dC][dE][dL]G[PEG4][dK]-NH2 / III: Ac-[dH][dP][dC][dD][dY][dP][dE][dW][dQ][dW][dL][dC][dE][dL]G[PEG4][dK]-NH2 (disulfide I:3-I:12, II:3-II:12, III:3-III:12; linker I:17-II:17-III:17 via X1) [CPT31]” yielded a solubility of roughly 40 mg/mL. The bioavailability in data set [4] (rat, in vivo, sc, 1 mg/kg) was 55%; in data set [5] (cynomolgus monkey, male cynomolgus monkeys, SC, 3.0 mg/kg, plasma, median) it was 80.4%. Also, the half-life was 3.25 h in data set [4] (rat, in vivo, iv, 1 mg/kg); 5.4 h in data set [4] (rat, in vivo, sc); 18 h in data set [5] (cynomolgus monkey, in vivo, non-human primates, SC, read-out: subcutaneous half-life (converted)). For the same compound, in data set [5] (cynomolgus monkeys, IV 1 mg/kg then SC 3 mg/kg), the adverse events result was “no adverse events were observed”.
As for “CPT24-5kD: includes 5 kDa of linear polydisperse PEG between PIE12-trimer and thiocholesterol”, in data set [4] (rats, IV), the “prolonged half-life compared to CPT24” value turned out to be 3.5 fold. In data set [4] (setting [8]), the total exposure AUC(0-inf) was 4578 nM·h, the C0 was 1.1 µM, the “Cl (obs)” value amounted to 0.0146 L/h/kg and the T1/2 worked out at 5.62 h. For the same compound, in data set [4] (setting [8]), the “Vz (obs)” value was 0.118 L/kg. Besides, the “prolonged half-life compared to CPT24” value in data set [4] (rats, SC) came to 1.8 fold. For the same compound, in data set [4] (setting [9]), the total exposure AUC(0-inf) is 1557 nM·h, the peak concentration (Cmax) turned out to be 0.089 µM and the T1/2 was found to be 7.21 h. Moreover, the “antiviral potency, in words” value in data set [6] is listed as “comparable to CPT24”.
As for `CC(=O)N[C@H](Cc1c[nH]cn1)C(=O)N1CCC[C@@H]1C(=O)N[C@@H]1CSSC[C@H](C(=O)N[C@H](CCC(=O)O)C(=O)N[C@H](CC(C)C)C(=O)NCC(=O)N[C@H](CCCCNC(=O)CCOCCOCCOCCOCCNC(=O)CCOCC(COCCC(=O)NCCOCCOCCOCCOCCC(=O)NCCCC[C@@H](NC(=O)CNC(=O)[C@@H](CC(C)C)NC(=O)[C@@H](CCC(=O)O)NC(=O)[C@H]2CSSC[C@@H](NC(=O)[C@H]3CCCN3C(=O)[C@@H](Cc3c[nH]cn3)NC(C)=O)C(=O)N[C@H](CC(=O)O)C(=O)N[C@H](Cc3ccc(O)cc3)C(=O)N3CCC[C@@H]3C(=O)N[C@H](CCC(=O)O)C(=O)N[C@H](Cc3c[nH]c4ccccc34)C(=O)N[C@H](CCC(N)=O)C(=O)N[C@H](Cc3c[nH]c4ccccc34)C(=O)N[C@H](CC(C)C)C(=O)N2)C(N)=O)(COCCC(=O)NCCOCCOCCOCCOCCC(=O)NCCCC[C@@H](NC(=O)CNC(=O)[C@@H](CC(C)C)NC(=O)[C@@H](CCC(=O)O)NC(=O)[C@H]2CSSC[C@@H](NC(=O)[C@H]3CCCN3C(=O)[C@@H](Cc3c[nH]cn3)NC(C)=O)C(=O)N[C@H](CC(=O)O)C(=O)N[C@H](Cc3ccc(O)cc3)C(=O)N3CCC[C@@H]3C(=O)N[C@H](CCC(=O)O)C(=O)N[C@H](Cc3c[nH]c4ccccc34)C(=O)N[C@H](CCC(N)=O)C(=O)N[C@H](Cc3c[nH]c4ccccc34)C(=O)N[C@H](CC(C)C)C(=O)N2)C(N)=O)NC(=O)CCOCCOCCOCCOCCOCCOCCOCCOCCOCCOCCOCCOCCOCCOCCOCCOCCOCCOCCOCCOCCOCCOCCOCCOCCNC(=O)CCN2C(=O)CC(S[C@H]3CC[C@@]4(C)C(=CC[C@H]5[C@@H]6CC[C@H]([C@H](C)CCCC(C)C)[C@@]6(C)CC[C@@H]54)C3)C2=O)C(N)=O)NC(=O)[C@@H](CC(C)C)NC(=O)[C@@H](Cc2c[nH]c3ccccc23)NC(=O)[C@@H](CCC(N)=O)NC(=O)[C@@H](Cc2c[nH]c3ccccc23)NC(=O)[C@@H](CCC(=O)O)NC(=O)[C@H]2CCCN2C(=O)[C@@H](Cc2ccc(O)cc2)NC(=O)[C@@H](CC(=O)O)NC1=O` (some centres unmarked) [CPT24], the bioavailability in data set [7] (Sprague Dawley, rat, SC, 1.0 mg/kg, plasma, median) is 73%; in data set [4] (rat, in vivo, sc, 1 mg/kg), 51.4%. The area under the curve AUC(0-inf) in data set [7] (setting [10]) is 2390 nM·h; in data set [7] (setting [11]) it was 1750 nM·h; in data set [4] (rat, in vivo, iv, 1 mg/kg) it was 4660 nM·h; in data set [4] (rat, in vivo, sc, 1 mg/kg), 2390 nM·h. The C0 in data set [7] (setting [10]) stood at 1.11 µM; in data set [4] (rat, in vivo, iv, 1 mg/kg) it was 4.53 µM. Also, the clearance in data set [7] (rat, in vivo, IV, 1.0 mg/kg, plasma, median, read-out: Cl (obs) (converted)) is 0.047 L/h/kg. Besides, the half-life in data set [7] (rat, in vivo, IV, 1.0 mg/kg, plasma, median, read-out: T1/2 (converted)) was 1.77 h; in data set [7] (rat, in vivo, IV, read-out: IV half-life (converted)), 1.8 h; in data set [7] (rat, in vivo, SC, 1.0 mg/kg, plasma, median, read-out: T1/2 (converted)), 2.71 h; in data set [7] (rat, in vivo, SC, read-out: SC half-life (converted)), 2.7 h; in data set [4] (rat, in vivo, iv, 1 mg/kg) it was 1.62 h; in data set [4] (rat, in vivo, sc), 3.8 h. Further, in data set [4] (rat, in vivo, sc, 1 mg/kg), the half-life was 3.88 h. In addition, the Vd in data set [7] (rat, in vivo, IV, 1.0 mg/kg, plasma, median, read-out: Vz (obs)) is 0.13 L/kg; in data set [4] (rat, in vivo, iv, 1 mg/kg), 0.057 L/kg. In addition, the Cmax worked out at 0.304 µM in data set [7] (setting [11]) and 0.395 µM in data set [4] (rat, in vivo, sc, 1 mg/kg). For the same compound, the Tmax in data set [7] (setting [11]) came out at 4 h; in data set [4] (rat, in vivo, sc, 1 mg/kg) it was 2 h. Moreover, the “increase of IV half-life vs PIE12-trimer” value in data set [7] (IV) is recorded as greater than 3 fold. Further, the “reduction of clearance vs PIE12-trimer” value in data set [7] (IV) is recorded as roughly 18 fold. Moreover, the “extension of SC (apparent) half-life vs PIE12-trimer” value in data set [7] (SC, terminal phase elimination) is given as greater than 3 fold. The solubility in data set [3] is roughly 40 mg/mL (≈ 4.53 mM). The compound also returned a F in data set [4] (setting [9]) of 51%.
